We go through two proteins from PMC2788424, “The 3′-Phosphoadenosine 5′-Phosphosulfate Transporters, PAPST1 and 2, Contribute to the Maintenance and Differentiation of Mouse Embryonic Stem Cells” (PLoS ONE, 2009).

Substrate in this data set: Nc1ncnc2c1ncn2[C@@H]1O[C@H](COP(=O)(O)OS(=O)(=O)O)[C@@H](OP(=O)(O)O)[C@H]1O
Kind of data set: cells, lysate or membranes. The following applies: labelled compound, 20 mM Tris-HCl pH 7.5, 0.25 M sucrose, 5 mM MgCl2, 1 mM MnCl2, 10 mM 2-mercaptoethanol, 32°C, 5 min. The data set is classed as biochemical, Mus musculus.

B1: PAPST1 (Mus musculus) (protein)
chain: MDARWWAVVVLATLPSLGAGGESPEAPPQSWTQLWLFRFLLNVAGYASFMVPGYLLVQYLRRKNYLETGRGLCFPLVKACVFGNEPKAPDEVLLAPRTETAESTPSWQVLKLVFCASGLQVSYLTWGILQERVMTGSYGATATSPGEHFTDSQFLVLMNRVLALVVAGLYCVLRKQPRHGAPMYRYSFASLSNVLSSWCQYEALKFVSFPTQVLAKASKVIPVMMMGKLVSRRSYEHWEYLTAGLISIGVSMFLLSSGPEPRSSPATTLSGLVLLAGYIAFDSFTSNWQDALFAYKMSSVQMMFGVNLFSCLFTVGSLLEQGALLEGARFMGRHSEFALHALLLSICSAFGQLFIFYTIGQFGAAVFTIIMTLRQAIAILLSCLLYGHTVTVVGGLGVAVVFTALLLRVYARGRKQRGKKAVPTEPPVQKV
Broadly, the Km is the substrate concentration at which the rate is half of its maximum. For B1, the Km came out at 1.54 µM.

B2: PAPST2 (Mus musculus) (protein)
chain: MDLKFNNSRKYVSISVPSKTQAMSPHIKSVEDVVVLGVNLSKFSKLTQFLICVAGVFVFYLIYGYLQELIFSVEGFKPYGWYLTLVQFAFYSVFGLIELQLTQDRRRRIPGKTYMLIAFLTVGTMGLSNTSLGYLNYPTQVIFKCCKLIPVMLGGVFIQGKRYNLADVSAAVCMSLGLIWFTLADSTIAPNFNLTGVMLISLALCADAVIGNVQEKAMKLHNASNSEMVLYSYSIGFVYILLGLSCTSGLGPAVAFCSKNPVGTYGYAFLFSLTGYFGISFVLALIKIFGALLAVTVTTGRKAMTVVLSFLFFAKPFTFQYIWSGLLVVLGIFLNVYSKNMDKIRLPSVYNMIKKAMDMKKSRTLAQTV
B2: the Km was determined as 1.49 µM.
